Measurements as given in patent US20130078247A1 (Boehringer Ingelheim, published 2013).

Experiments:
[1] = biological target: T1, cynomolgus DLL4, full length, overexpressed on cells (cynomolgus, UniProt Q9NR61 27-685 (human entry)); experiment: FACS titration on HEK293-cDLL4 cells
T1 construct: also called CHO-cDLL4; cDLL4
T1 chain: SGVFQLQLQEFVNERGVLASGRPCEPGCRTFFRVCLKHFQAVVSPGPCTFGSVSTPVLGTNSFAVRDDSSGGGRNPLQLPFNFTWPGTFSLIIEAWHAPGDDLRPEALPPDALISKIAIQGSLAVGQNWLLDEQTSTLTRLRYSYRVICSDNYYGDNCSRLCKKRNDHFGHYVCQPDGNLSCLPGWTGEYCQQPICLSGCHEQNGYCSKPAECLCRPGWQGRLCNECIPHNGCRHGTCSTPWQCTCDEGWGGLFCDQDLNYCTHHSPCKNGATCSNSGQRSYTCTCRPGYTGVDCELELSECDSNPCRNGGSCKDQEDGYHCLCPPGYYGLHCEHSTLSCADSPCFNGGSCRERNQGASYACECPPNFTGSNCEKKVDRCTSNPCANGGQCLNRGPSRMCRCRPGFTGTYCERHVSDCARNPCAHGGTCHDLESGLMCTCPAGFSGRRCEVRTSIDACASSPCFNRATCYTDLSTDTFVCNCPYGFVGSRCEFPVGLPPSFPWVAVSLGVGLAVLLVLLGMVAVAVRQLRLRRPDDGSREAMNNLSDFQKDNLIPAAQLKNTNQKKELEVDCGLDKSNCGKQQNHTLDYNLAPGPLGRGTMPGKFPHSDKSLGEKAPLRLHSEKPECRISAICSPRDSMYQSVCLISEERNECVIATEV
Method: In order to determine the cynomologus cross-reactivity of the VHHs, a FACS binding experiment is performed. Cynomolgus DII4 expressing HEK293 cells (transient or stable transfection) are used for a titration binding experiment of the VHHs. After a 30 minutes incubation on ice, all samples are washed and detection is performed by applying anti-c-myc-Alexa647 (Santa Cruz Biotechnology, Santa Cruz, Calif., USA). Human and mouse DII4 overexpressing HEK293 cells are taken as reference. The mean MCF value is determined on the FACS Array and used for calculation of the EC₅₀ value (see FIG. 9).

human Ang2 [2] = biological target: T2, human Ang2 (human, UniProt O15123 19-496, limits assumed); experiment: competition ELISA hAng2/hTie2-Fc
T2 construct: also called hAng2; human Angiopoietin2
T2 sequence (looked up): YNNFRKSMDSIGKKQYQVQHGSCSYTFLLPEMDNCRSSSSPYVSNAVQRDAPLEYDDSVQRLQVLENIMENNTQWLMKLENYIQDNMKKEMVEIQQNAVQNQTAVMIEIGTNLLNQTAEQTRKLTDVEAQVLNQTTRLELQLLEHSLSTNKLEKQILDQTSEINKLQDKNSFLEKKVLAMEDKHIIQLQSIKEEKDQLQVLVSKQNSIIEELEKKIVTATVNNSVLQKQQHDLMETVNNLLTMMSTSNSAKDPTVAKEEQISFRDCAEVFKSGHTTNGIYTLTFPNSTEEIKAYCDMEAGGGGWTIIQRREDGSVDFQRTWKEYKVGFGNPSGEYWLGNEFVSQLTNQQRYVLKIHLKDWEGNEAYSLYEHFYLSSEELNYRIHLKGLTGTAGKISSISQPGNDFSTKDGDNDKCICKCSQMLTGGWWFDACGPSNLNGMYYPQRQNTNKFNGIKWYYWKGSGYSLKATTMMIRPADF
Method: (§1) This assay is also performed after incubation of the VHH with 0.5 μM human serum albumin.

mouse Ang2 = biological target: T3, mouse Ang2 (mouse, UniProt O35608 19-496, limits assumed); experiment: competition ELISA: mAng2 binding to mTie2
T3 construct: also called mAng2
T3 sequence (looked up): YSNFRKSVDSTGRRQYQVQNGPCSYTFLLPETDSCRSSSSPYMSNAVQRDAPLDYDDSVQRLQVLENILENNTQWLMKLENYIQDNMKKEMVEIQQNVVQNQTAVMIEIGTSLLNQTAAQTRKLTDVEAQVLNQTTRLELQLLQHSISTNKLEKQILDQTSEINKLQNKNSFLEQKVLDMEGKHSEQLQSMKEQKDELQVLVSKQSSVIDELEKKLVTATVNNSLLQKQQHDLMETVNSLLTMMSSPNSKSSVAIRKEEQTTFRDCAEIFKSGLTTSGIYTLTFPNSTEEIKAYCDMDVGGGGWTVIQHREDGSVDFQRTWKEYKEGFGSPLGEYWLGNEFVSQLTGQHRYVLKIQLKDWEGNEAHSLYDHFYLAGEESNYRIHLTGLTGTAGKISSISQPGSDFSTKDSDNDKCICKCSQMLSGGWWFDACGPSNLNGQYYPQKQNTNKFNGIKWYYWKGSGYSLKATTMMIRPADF
Method: as §1

cynomolgus Ang2 = biological target: T4, cynomolgus Ang2 (cynomolgus); experiment: competition ELISA: cAng2 binding to cTie2
T4 construct: also called cAng2; cyno Ang2
Method: as §1

[3] = biological target: T5, recombinant human DLL4 extracellular domain, C-terminally His-tagged (R&D Systems) (human, UniProt Q9NR61 25-522, biotinylated in the competition assays (sites not given)); experiment: periplasmic extract; hDLL4 ELISA
T5 construct: also called rhDLL4; hDLL4; not shown: C-terminal His tag

[4] = biological target: T5, recombinant human DLL4 extracellular …; experiment: periplasmic extract; hDLL4/hNotch1 AlphaScreen
Method: To this mixture, the acceptor beads and the streptavidin donor beads are added and further incubated for 1 hour at room temperature. Fluorescence is measured by reading plates on the Envision Multilabel Plate reader (Perkin Elmer, Waltham, Mass., USA) using an excitation wavelength of 680 nm and an emission wavelength of 520 nm.

[5] = biological target: T5, recombinant human DLL4 extracellular …; experiment: periplasmic extract; Biacore off-rate
[6] = biological target: T6, mouse DLL4, full length, overexpressed on CHO or HEK293 cells (mouse, UniProt Q9JI71 27-686); experiment: FMAT competition: labelled hNotch1-Fc on CHO-mDLL4 cells
T6 construct: whole, on cells; also called CHO-mDLL4; CHO-mDII4
Text: (§2) All calculations are based on the FL1_total signal which comprises the average of the fluorescence per well times the number of counts per well.

[7] = biological target: T7, human DLL4, full length, overexpressed on CHO or HEK293 cells (human, UniProt Q9NR61 27-685); experiment: periplasmic extract; FMAT, Notch1/Fc on CHO-hDLL4
T7 construct: also called CHO-hDLL4; CHO-hDII4
Text: as §2

[8] = biological target: T6, mouse DLL4, full length, overexpressed …; experiment: periplasmic extract; FMAT, Notch1/Fc on CHO-mDLL4
Text: as §2
Target sequence in this assay (Q9JI71 27-686): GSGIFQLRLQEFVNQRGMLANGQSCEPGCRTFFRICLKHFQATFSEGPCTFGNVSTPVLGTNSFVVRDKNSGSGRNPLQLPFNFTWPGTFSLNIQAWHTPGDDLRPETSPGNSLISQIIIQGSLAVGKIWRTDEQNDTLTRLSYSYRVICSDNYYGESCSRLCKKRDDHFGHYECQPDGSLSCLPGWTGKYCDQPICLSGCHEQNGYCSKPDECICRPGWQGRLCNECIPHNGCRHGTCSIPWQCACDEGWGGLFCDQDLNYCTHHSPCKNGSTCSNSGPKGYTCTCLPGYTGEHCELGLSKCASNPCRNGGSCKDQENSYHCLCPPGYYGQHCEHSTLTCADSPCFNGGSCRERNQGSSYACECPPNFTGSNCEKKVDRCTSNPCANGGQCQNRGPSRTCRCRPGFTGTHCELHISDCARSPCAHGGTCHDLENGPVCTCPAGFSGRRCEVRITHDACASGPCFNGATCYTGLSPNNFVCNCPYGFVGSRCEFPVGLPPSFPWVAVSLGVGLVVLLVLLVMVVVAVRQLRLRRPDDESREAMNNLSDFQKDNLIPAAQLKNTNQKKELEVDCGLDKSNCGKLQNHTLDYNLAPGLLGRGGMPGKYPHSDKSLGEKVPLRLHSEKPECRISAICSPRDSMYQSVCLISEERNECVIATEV

[9] = biological target: T5, recombinant human DLL4 extracellular …; experiment: cell-based or functional assay
[10] = biological target: T7, human DLL4, full length, overexpressed …; experiment: cell-based or functional assay
human Ang2 [11] = biological target: T2, human Ang2; experiment: competition ELISA hAng2/hTie2-Fc, with 0.5 uM HSA [continued]
Method: as §1

B1: DLLBII55D12 (VHH)
VHH: EVQLVESGGGLVQPGGSLRLSCAASGFTFDDYAIGWFRQAPGKEPEGISCISSSGGITYYADSVKGRFTISRDNAKNTVYLQMNSLKPEDTAVYYCATPGIAACRGIHYTGQGTQVTVSS
notes: not shown: C-terminal c-myc and His6 tags
binding result [1]: binds

B2: 00045 (VHH)
VHH: EVQLVESGGGLVQPGGSLRLSCAASGFALDYYAIGWFRQAPGKEREGVSCISSSDGITYYADSVKGRFTISRDNSKNTVYLQMNSLRPEDTAVYYCATDSGGYIDYDCMGLGYDYWGQGTLVTVSS
IC50 (read off the curve) (human Ang2 [2]): ~0.1 nM

B3: 00045 (VHH)
VHH: EVQLVESGGGLVQPGGSLRLSCAASGFALDYYAIGWFRQAPGKEREGVSCISSSDGITYYADSVKGRFTISRDNSKNTVYLQMNSLRPEDTAVYYCATDSGGYIDYDCMGLGYDYWGQGTLVTVSS
IC50 (read off the curve) (mouse Ang2): ~0.2 nM | IC50 (read off the curve) (cynomolgus Ang2): ~0.2 nM

B4: DLLBII17G10 (VHH)
VHH: EVQLVESGGGLVQAGGSLRLSCAASGSTFSSYAMGWYRHQAPGKQRELVAAISSDGSTHYADSVKGRFTISRDNAKNTMYLQMNSLKPEDTAVYYCNTKTFGSNWYDDYWGQGTQVTVSS
notes: as for B1
% inhibition [3]: 93% | % inhibition [4]: 82% | koff [5]: 0.0015 s⁻¹

B5: DLLBII19D10 (VHH)
VHH: EVQLVESGGGLVQAGDSLRLSCAASGRTVGSYDMSWVRQGPGKEREWVSSINSGVGKTYYADSVKGRFTIFRDNAKNMVYLQMNNLKPEDTAVYYCATEMDGSRYVEGQGTQVTVSS
notes: as for B1
% inhibition [3]: 98% | % inhibition [4]: 85% | koff [5]: 0.0013 s⁻¹

B6: DLLBII17C01 (VHH)
VHH: EVQLVESGGGLVQAGGSLRLSCAASGFTFDDYPIGWLRQAPGKEREGVSCISSSDDSTYYADSVKGRFTISSNNAKNTVYLQMNSLKPEDTAVYYCAVRLFSGGCAVVAGTSWADFGSSGQGTQVTVSS
notes: also called DLLBII17C1; not shown: C-terminal c-myc and His6 tags
% inhibition [3]: 82% | % inhibition [4]: 84% | koff [5]: 0.00056 s⁻¹

B7: 78B04 (VHH)
VHH: EVQLVESGGGLVQAGGSLRLSCAASGRTFSNYIMGWFRQAPGKEREFVAGISRYGDYTYYADSVKGRFTISRDNVKNTVYLRMNSLKPDDTAVYYCAANEGYCSGYGCYEDSGQYDYWGQGTQVTVSS
notes: also called DLLBII78B04
binding result [6]: binds

B8: DLLBII101G08 (VHH)
VHH: EVQLVESGGGLVQAGGSLRLSCAASGRTFSSYAMAWFRQAPGKEREFVAAIRWSGGTAYYADSVQGRFTISRDNAKNTVYLQMNSLKPEDTAVYYCANRAADTRLGPYEYDYWGQGTQVTVSS
notes: also called 101G8; DLLBII101G8; not shown: C-terminal c-myc and His6 tags
% inhibition [7]: 91% | % inhibition [8]: 92% | concentration giving complete inhibition, HUVEC proliferation assay [9]: 10 µM | EC50 (read off the curve) [1]: ~8 nM | IC50, DLL4/Notch1 reporter assay (luciferase; co-culture with HEK293-hDII4) [10]: 2760 nM

B9: 00042 (VHH)
VHH: EVQLVESGGGLVQPGGSLRLSCAASGFTLDDYAIGWFRQAPGKEREGVSSIRDNDGSTYYADSVKGRFTISSDNSKNTVYLQMNSLRPEDTAVYYCAAVPAGRLRFGEQWYPLYEYDAWGQGTLVTVSS
IC50 (read off the curve) (human Ang2 [11]): ~0.6 nM | IC50 (read off the curve) (human Ang2 [2]): ~0.6 nM
